The source of these data is US20140087995A1 (published 2014).

Changes are numbered by the printed parent chain. Numbered stars: 1 amine (or outer) side, 2 acyl side, 3 side chain; on linkers, the order of the positions; unused ones are H or OH. Bridge positions count the residues as written; N and C are the ends. * marks the point of attachment. C20 diacid = O=C(O)CCCCCCCCCCCCCCCCCCC(=O)*; γGlu = O=C(O)[C@H](CCC(=O)[*:2])N[*:1]; AEEA = NCCOCCOCC(=O)O

B1: N^α1-[(4S)-4-carboxy-4-(19-carboxynonadecanoylamino)butanoyl]-[Arg17,Pro21,Pro27,Pro31,Glu35]-h-amylin (peptide)
peptide: {C20 diacid-γGlu}-KCNTATCATQRLANFLRHSSPNFGAIPSSTPVGSETY-NH2
modifications: disulfide 2-7
SMILES: CC[C@H](C)[C@H](NC(=O)[C@H](C)NC(=O)CNC(=O)[C@H](Cc1ccccc1)NC(=O)[C@H](CC(N)=O)NC(=O)[C@@H]1CCCN1C(=O)[C@H](CO)NC(=O)[C@H](CO)NC(=O)[C@H](Cc1c[nH]cn1)NC(=O)[C@H](CCCNC(=N)N)NC(=O)[C@H](CC(C)C)NC(=O)[C@H](Cc1ccccc1)NC(=O)[C@H](CC(N)=O)NC(=O)[C@H](C)NC(=O)[C@H](CC(C)C)NC(=O)[C@H](CCCNC(=N)N)NC(=O)[C@H](CCC(N)=O)NC(=O)[C@@H](NC(=O)[C@H](C)NC(=O)[C@@H]1CSSC[C@H](NC(=O)[C@H](CCCCN)NC(=O)CC[C@H](NC(=O)CCCCCCCCCCCCCCCCCCC(=O)O)C(=O)O)C(=O)N[C@@H](CC(N)=O)C(=O)N[C@@H]([C@@H](C)O)C(=O)N[C@@H](C)C(=O)N[C@@H]([C@@H](C)O)C(=O)N1)[C@@H](C)O)C(=O)N1CCC[C@H]1C(=O)N[C@@H](CO)C(=O)N[C@@H](CO)C(=O)N[C@H](C(=O)N1CCC[C@H]1C(=O)N[C@H](C(=O)NCC(=O)N[C@@H](CO)C(=O)N[C@@H](CCC(=O)O)C(=O)N[C@H](C(=O)N[C@@H](Cc1ccc(O)cc1)C(N)=O)[C@@H](C)O)C(C)C)[C@@H](C)O
notes: also called compound 28
B2: N^α1-[(4S)-4-carboxy-4-(19-carboxynonadecanoylamino)butanoyl]-[Arg17,Pro21,Pro27,Lys35]-h-amylin (peptide)
peptide: KCNTATCATQRLANFLRHSSPNFGAIPSSTNVGSKTY
modifications: C20 diacid-gGlu on the alpha amino group of the N-terminal residue; disulfide bridge Cys2-Cys7; C-terminal amide
notes: also called compound 34
B3: N^α1-[2-[2-[2-[[2-[2-[2-[[(4S)-4-carboxy-4-(19-carboxynonadecanoylamino)butanoyl]amino]ethoxy]ethoxy]acetyl]amino]ethoxy]ethoxy]acetyl]-[Glu14,Arg17,Pro21,Pro27 … (peptide)
peptide: {C20 diacid-γGlu-AEEA-AEEA}-KCNTATCATQRLAEFLRHSSPNFGAIPSSTNVGSNTP-NH2
modifications: disulfide 2-7
SMILES: CC[C@H](C)[C@H](NC(=O)[C@H](C)NC(=O)CNC(=O)[C@H](Cc1ccccc1)NC(=O)[C@H](CC(N)=O)NC(=O)[C@@H]1CCCN1C(=O)[C@H](CO)NC(=O)[C@H](CO)NC(=O)[C@H](Cc1c[nH]cn1)NC(=O)[C@H](CCCNC(=N)N)NC(=O)[C@H](CC(C)C)NC(=O)[C@H](Cc1ccccc1)NC(=O)[C@H](CCC(=O)O)NC(=O)[C@H](C)NC(=O)[C@H](CC(C)C)NC(=O)[C@H](CCCNC(=N)N)NC(=O)[C@H](CCC(N)=O)NC(=O)[C@@H](NC(=O)[C@H](C)NC(=O)[C@@H]1CSSC[C@H](NC(=O)[C@H](CCCCN)NC(=O)COCCOCCNC(=O)COCCOCCNC(=O)CC[C@H](NC(=O)CCCCCCCCCCCCCCCCCCC(=O)O)C(=O)O)C(=O)N[C@@H](CC(N)=O)C(=O)N[C@@H]([C@@H](C)O)C(=O)N[C@@H](C)C(=O)N[C@@H]([C@@H](C)O)C(=O)N1)[C@@H](C)O)C(=O)N1CCC[C@H]1C(=O)N[C@@H](CO)C(=O)N[C@@H](CO)C(=O)N[C@H](C(=O)N[C@@H](CC(N)=O)C(=O)N[C@H](C(=O)NCC(=O)N[C@@H](CO)C(=O)N[C@@H](CC(N)=O)C(=O)N[C@H](C(=O)N1CCC[C@H]1C(N)=O)[C@@H](C)O)C(C)C)[C@@H](C)O
notes: also called compound 20
B4: N^α1-[(4S)-4-carboxy-4-(19-carboxynonadecanoylamino)butanoyl]-[Arg17,Pro21,Pro27,Glu35]-h-amylin (peptide)
peptide: B2 peptide with K35E
modifications: C20 diacid-gGlu on the alpha amino group of the N-terminal residue; disulfide bridge Cys2-Cys7; C-terminal amide
notes: also called compound 23
B5: N^α1 N^α1-[(4S)-4-carboxy-4-[[(4S)-4-carboxy-4-(19-carboxynonadecanoylamino)butanoyl]amino]butanoyl]-[Glu14,Arg17,Pro21,Pro27]-h-amylin (peptide)
peptide: {C20 diacid-γGlu-γGlu}-KCNTATCATQRLAEFLRHSSPNFGAIPSSTNVGSNTY-NH2
modifications: disulfide 2-7 (inferred)
notes: analogue of human amylin; the name is printed with N^α1 twice; also called compound 15

The target of the first test is T1, human calcitonin receptor (human, UniProt P30988 25-474).
T1 sequence (looked up): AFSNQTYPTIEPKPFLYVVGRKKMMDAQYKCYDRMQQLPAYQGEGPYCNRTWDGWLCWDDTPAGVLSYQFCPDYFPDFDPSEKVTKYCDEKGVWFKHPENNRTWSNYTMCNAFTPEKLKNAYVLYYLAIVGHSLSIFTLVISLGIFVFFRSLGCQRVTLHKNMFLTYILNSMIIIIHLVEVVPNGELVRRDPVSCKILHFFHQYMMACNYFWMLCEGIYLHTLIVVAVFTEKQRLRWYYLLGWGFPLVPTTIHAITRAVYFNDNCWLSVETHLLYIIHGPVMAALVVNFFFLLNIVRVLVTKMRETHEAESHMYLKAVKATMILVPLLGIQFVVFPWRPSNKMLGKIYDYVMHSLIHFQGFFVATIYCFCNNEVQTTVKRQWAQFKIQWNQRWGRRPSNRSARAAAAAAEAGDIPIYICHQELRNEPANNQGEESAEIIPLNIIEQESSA
Nature of the test: cell-based or functional assay.
In the case of B1, the “Ratio hCT/hAmylin funct.” value turned out to be 9.2 and the “hCTR funct. EC50” value was found to be 2030 pM.
On to B2, for which the “Ratio hCT/hAmylin funct.” value was found to be 8.4 and the “hCTR funct. EC50” value was found to be 2620 pM.
The corresponding values for B3 are 3.6 and 285 pM.
In the case of B4, the “Ratio hCT/hAmylin funct.” value was determined as 8.9 and the “hCTR funct. EC50” value amounted to 3020 pM.

In another test the target is T2, human amylin receptor (amylin 3(a) receptor: human calcitonin receptor with RAMP-3) (human, UniProt P30988 25-474; O60896 24-148).
T2 sequence (looked up) 1: T1 sequence (looked up)
T2 sequence (looked up) 2: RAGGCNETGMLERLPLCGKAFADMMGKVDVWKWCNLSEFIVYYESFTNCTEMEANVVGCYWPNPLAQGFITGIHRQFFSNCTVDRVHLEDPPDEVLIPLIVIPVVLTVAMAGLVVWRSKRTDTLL
Description: cell-based or functional assay.
For the molecule B1, the “hAmylin-R funct. EC50” value came to 220 pM.
The same measure, in the same setting: then B2, with 313 pM; and B3, with 80 pM.
Same read-out and setting: for B4 the value was 340 pM.

The target of the next test is T3, human calcitonin receptor (human, UniProt P30988 25-474).
T3 construct: whole, on cells; membranes of stably transfected BHK cells (Assay VII); also called hCTR; hCT
T3 sequence (looked up): T1 sequence (looked up)
Nature of the test: IC50 on human calcitonin receptor divided by IC50 on human amylin receptor (SPA competition). As to the method: The resulting pellet was resuspended, homogenized and centrifuged (20.000 rpm, 15 min) in a buffer containing 20 mM Na-HEPES and 0.1 mM EDTA (pH 7.4, buffer 2). The resulting pellet was resuspended in buffer 2 and protein concentration was measured (BCA protein Assay, Pierce). The homogenate was kept cold during the whole procedure. The membranes were kept at −80° C. until use. The assay was performed in a 384 well Optiplate (PerkinElmer) in a total volume of 40 ul. Membranes were mixed with SPA beads. Final concentration of membranes 35 ng/μL final and SPA beads was 0.05 mg/well. Test-compounds were dissolved in DMSO and further diluted in assay buffer (50 mM Hepes, pH 7.4, 1 mM CaCl2, 5 mM MgCl₂, 0.1% OA and 0.02% Tween20). […] The final mixture was incubated with shaking at 400 rpm for 120 min at 25° C. prior to centrifugation (1500 rpm, 10 min). Samples were analyzed on TopCounter™ (Packard). The IC₅₀ was calculated using (one site binding competition analysis) GraphPad Prism5 as a measure of receptor affinity.
Membranes were prepared in the following way; the cells were rinsed with PBS and incubated with Versene for approximately 5 min before harvesting. The cells were flushed with PBS and the cell-suspension was centrifuged for 5 min at 1000 rpm. Cells were homogenized (Ultrathurrax) in a buffer containing 20 mM Na-HEPES and 10 mM EDTA (pH 7.4) and centrifuged at 20.000 rpm for 15 min. The resulting pellet was resuspended, homogenized and centrifuged (20.000 rpm, 15 min) in a buffer containing 20 mM Na-HEPES and 0.1 mM EDTA (pH 7.4, buffer 2). The resulting pellet was resuspended in buffer 2 and protein concentration was measured (BCA protein Assay, Pierce). The homogenate was kept cold during the whole procedure. The membranes were kept at −80° C. until use. Assay was performed in a 384 well Optiplate (PerkinElmer) in a total volume of 40 ul. Membranes were mixed with SPA beads.
For B5, the “Ratio hCT/hAmylin binding” value was found to be 26.
